These results are taken from paper PMC11507401, “Functional and Physiological Characterization of Tyrosine Decarboxylases from Olea europaea L. Involved in the Synthesis of the Main Phenolics in Olive Fruit and Virgin Olive Oil” (International Journal of Molecular Sciences, 2024).

As usually defined, the Km is the concentration of substrate that gives half-maximal velocity. The term Vmax denotes the rate approached at saturating substrate. By kcat is commonly meant the maximal rate divided by the concentration of active sites. The term kcat/Km denotes the turnover number divided by the Michaelis constant.

In one series the target is T1, OeTDC2 (Olea europaea, UniProt A0A8S0SA91).
T1 construct: gene OLEA9_A073377
T1 sequence (A0A8S0SA91 entry or part of it): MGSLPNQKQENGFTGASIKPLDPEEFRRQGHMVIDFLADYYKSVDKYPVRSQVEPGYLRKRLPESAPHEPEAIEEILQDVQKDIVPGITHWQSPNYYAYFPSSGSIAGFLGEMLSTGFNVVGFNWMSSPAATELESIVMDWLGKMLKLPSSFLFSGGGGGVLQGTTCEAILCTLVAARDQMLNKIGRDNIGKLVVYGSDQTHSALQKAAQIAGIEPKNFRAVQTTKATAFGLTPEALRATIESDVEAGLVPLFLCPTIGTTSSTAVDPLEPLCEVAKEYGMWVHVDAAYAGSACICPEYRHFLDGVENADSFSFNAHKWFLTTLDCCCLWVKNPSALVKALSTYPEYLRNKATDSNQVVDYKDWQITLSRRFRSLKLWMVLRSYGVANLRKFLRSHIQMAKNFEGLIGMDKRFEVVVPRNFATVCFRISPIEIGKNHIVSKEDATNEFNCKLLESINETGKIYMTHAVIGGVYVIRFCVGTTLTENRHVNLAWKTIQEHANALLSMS
Briefly: activity of enzyme extracted and purified with or without PLP. The settings on record: PLP in or omitted from lysis and purification buffers; tightly bound cofactor. It is filed as biochemical.

A further series concerns the target T2, OeTDC1 (Olea europaea, UniProt A0AB74UCV8).
T2 construct: gene TDC1
The series is described as above. The following applies: PLP in or omitted from lysis and purification buffers; tightly bound cofactor. It is filed as biochemical.

Substrate in series [1]: N[C@@H](Cc1ccc(O)c(O)c1)C(=O)O
Briefly: purified protein. The series is classed as biochemical, Olea europaea. The settings on record: 50 mM Tris-HCl pH 8.0, 40 °C, 200 µM PLP, 15 min.

Substrate in series [2]: N[C@@H](Cc1ccc(O)cc1)C(=O)O
The series can be described thus: purified protein. It is filed as biochemical, Olea europaea. The settings on record: 50 mM Tris-HCl pH 8.0, 40 °C, 200 µM PLP, 15 min.

In the case of `Cc1ncc(COP(=O)(O)O)c(C=O)c1O` [PLP], the “activity of enzyme extracted and purified with or without PLP” value on OeTDC2 and on OeTDC1 was “it was observed that PLP binds tightly to the olive TDC proteins” each time.

B1: OeTDC1 (Olea europaea subsp. europaea) (protein)
chain: MGSLQNQKPENGFTGAPIKPLDPEEFRRQGHMVIDFLADYYKNVEKYPVRSQVQPGYLRKRLPESAPHEPEPIEEILQDVQKDIVPGITHWQSPNYYAYFPSSGSIAGFLGEMLSTGFNVVGFNWMSSPAATELESIVMDWLGKMLNLPSSFLFSGGGGGVLQGTTCEGILCTLVAARDQMLNKIGRDNIGKLVVYGSDQTHSALQKAAQIAGIEPKNFRAVQTTKATAFGLTAEALRSTIESDVEAGLVPLFLCPTVGTTSSTAVDPIGPLCEVAKEYGMWVHVDAAYAGSACILPEYRHFLDGVENADSFSFNAHKWFLTTLDCCCLWVKNPSALVKALSTYPEYLRNKATDSNQVVDYKDWQITLSRRFRSLKLWLVLRSYGVANLRKFLRSHIQMAKNFEGLIGMDKRFEVVVPRNFATVCFRISPIEIGKNHIVSKEEVTNEFNSKLLESINEAGKIYVTHAVIGGVYVIRFCVGTTLTENRHVILAWKTIQEHANALLSMS
B1: in the series “purified protein [1]”, the Km is reported as 0.34 mM, the Vmax was determined as 4.08 µmol/min/mg, the kcat is 3.82 s⁻¹ and the kcat/Km turned out to be 11300 M⁻¹ s⁻¹. For the same molecule, in the series “purified protein [2]”, the Km is on record as 1.90 mM, the maximum rate (Vmax) was determined as 12.4 µmol/min/mg, the kcat is 12.8 s⁻¹ and the kcat/Km came out at 6720 M⁻¹ s⁻¹.
